Experiments:
[1] = biological target: T1, anthrax protective antigen (PA) (Bacillus anthracis, UniProt P13423 30-764); experiment: SPR
[2] = biological target: T1, anthrax protective antigen (PA); experiment: SPR (Biacore 3000), antibody down; PA analyte
[3] = biological target: T1, anthrax protective antigen (PA); experiment: SPR (Biacore 3000), PA down; antibody analyte
[4] = biological target: T1, anthrax protective antigen (PA); experiment: not stated (presumably SPR)

T1 sequence (P13423 30-764 limits assumed): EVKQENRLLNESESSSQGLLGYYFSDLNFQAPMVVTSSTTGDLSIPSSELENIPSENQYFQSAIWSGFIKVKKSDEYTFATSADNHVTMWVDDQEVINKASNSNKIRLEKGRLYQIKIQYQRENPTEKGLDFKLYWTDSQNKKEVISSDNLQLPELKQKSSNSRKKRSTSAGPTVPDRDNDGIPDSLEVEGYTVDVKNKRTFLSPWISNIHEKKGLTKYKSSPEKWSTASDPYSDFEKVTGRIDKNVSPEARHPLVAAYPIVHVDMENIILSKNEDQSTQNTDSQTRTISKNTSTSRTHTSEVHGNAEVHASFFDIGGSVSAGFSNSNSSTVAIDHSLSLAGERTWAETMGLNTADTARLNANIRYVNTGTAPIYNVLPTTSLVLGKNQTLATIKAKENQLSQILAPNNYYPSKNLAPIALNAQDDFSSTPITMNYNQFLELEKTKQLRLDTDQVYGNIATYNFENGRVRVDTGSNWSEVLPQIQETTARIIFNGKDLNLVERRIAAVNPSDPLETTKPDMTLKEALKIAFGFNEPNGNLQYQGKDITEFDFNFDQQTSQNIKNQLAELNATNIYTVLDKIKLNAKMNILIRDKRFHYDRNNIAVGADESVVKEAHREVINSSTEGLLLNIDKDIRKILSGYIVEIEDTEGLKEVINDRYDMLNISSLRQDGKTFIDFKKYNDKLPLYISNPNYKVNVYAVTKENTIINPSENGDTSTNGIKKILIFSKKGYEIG

Binder	Kd [1]	koff [1]	kon [1]	Kd [2]	kon [2]	Kd [3]	kon [3]	Kd [4]	fold improvement of KD over the whole antibody to PA [4]
anti-PA 14B7 scFv (scFv) scFv: DIQMTQTTSSLSASLGDRVTISCRASQDIRNYLNWYQQKPDGTVKLLIYYTSRLQSGVPSRFSGSGSGTDYSLTISNQEQEDIGTYFCQQGNTLPWTFGGGTKLEIKRGGGGSGGGGSGGGGSGGGGSEVQLQQSGPELVKPGASVKISCKDSGYAFSSSWMNWVKQRPGQGLEWIGRIYPGDGDTNYNGKFKGKATLTADKSSSTAYMQLSSLTSVDSAVYFCARSGLLRYAMDYWGQGTSVTVSS	4.3 nM	0.003 s⁻¹	710000 M⁻¹ s⁻¹						
M18 scAb (scFv) scFv: DIQMTQTTSSLSASLGDRVTVSCRASQDIRNYLNWYQQKPDGTVKFLIYYTSRLQPGVPSRFSGSGSGTDYSLTINNLEQEDIGTYFCQQGNTPPWTFGGGTKLEIKRGGGGSGGGGSGGGGSGGGGSEVQLQQSGPELVKPGASVKISCKDSGYAFNSSWMNWVKQRPGQGLEWIGRIYPGDGDSNYNGKFEGKAILTADKSSSTAYMQLSSLTSVDSAVYFCARSGLLRYAMDYWGQGTSVTVSS	0.035 nM	4.2e-05 s⁻¹	1.2e+06 M⁻¹ s⁻¹	0.095 nM	930000 M⁻¹ s⁻¹	0.044 nM	1.4e+06 M⁻¹ s⁻¹	0.054 nM	~5 fold
M18 scAb-PEG 20 kDa (scFv) scFv: DIQMTQTTSSLSASLGDRVTVSCRASQDIRNYLNWYQQKPDGTVKFLIYYTSRLQPGVPSRFSGSGSGTDYSLTINNLEQEDIGTYFCQQGNTPPWTFGGGTKLEIKRGGGGSGGGGSGGGGSGGGGSEVQLQQSGPELVKPGASVKISCKDSGYAFNSSWMNWVKQRPGQGLEWIGRIYPGDGDSNYNGKFEGKAILTADKSSSTAYMQLSSLTSVDSAVYFCARSGLLRYAMDYWGQGTSVTVSS				0.025 nM	780000 M⁻¹ s⁻¹	0.69 nM	100000 M⁻¹ s⁻¹		
M18 scAb-PEG 40 kDa (scFv) scFv: DIQMTQTTSSLSASLGDRVTVSCRASQDIRNYLNWYQQKPDGTVKFLIYYTSRLQPGVPSRFSGSGSGTDYSLTINNLEQEDIGTYFCQQGNTPPWTFGGGTKLEIKRGGGGSGGGGSGGGGSGGGGSEVQLQQSGPELVKPGASVKISCKDSGYAFNSSWMNWVKQRPGQGLEWIGRIYPGDGDSNYNGKFEGKAILTADKSSSTAYMQLSSLTSVDSAVYFCARSGLLRYAMDYWGQGTSVTVSS				0.043 nM	870000 M⁻¹ s⁻¹	2.6 nM	27000 M⁻¹ s⁻¹		

— patent US20060121045A1 (published 2006)
